For test [1], the target named is T1, endogenous human ErbB3 expressed on human cancer cells (MCF7; A431NS) (human, UniProt P21860 20-1342).
T1 construct: whole, on cells; also called Her3; HER3/c-ErbB3
The test can be described thus: flow cytometry on MCF7 cells. The protocol: This example illustrates the binding of anti-ErbB3 antibodies to endogenous human ErbB3 expressed on human cancer cells, as assayed by flow cytometry. EC₅₀ values for antibodies were determined as follows.
Her3 expressing MCF7 cells were harvested with enzyme-free Cell Dissociation Buffer (GIBCO) and transferred to V-Bottom 96 well-plates (50,000 cells/well). Cells were incubated on ice for 30 min with serial dilutions of anti-ErbB3 antibodies in FACS buffer (PBS+2% FBS)+NaN₃. After 2 washes in FACS buffer, a 1:1000 dilution of Phycoerythrin conjugated anti-Human IgG (γ-chain specific) was added and incubated for 30 min. Following a final wash, fluorescence intensity was measured on an Intellicyt High Throughput Flow Cytometer (HTFC). Data were analyzed using Graphpad Prism software using non-linear regression fit. Data points are shown as the median fluorescence intensity (MFI) of positively labeled cells +/− Standard Error. EC₅₀ values are reported as the concentration of antibody to achieve 50% of maximal ErbB3 antibodies binding to ErbB3 expressing cells.

Test [2] deals with T1, endogenous human ErbB3 expressed on …. The test can be described thus: cell-based or functional assay.

T1 sequence (P21860 20-1342): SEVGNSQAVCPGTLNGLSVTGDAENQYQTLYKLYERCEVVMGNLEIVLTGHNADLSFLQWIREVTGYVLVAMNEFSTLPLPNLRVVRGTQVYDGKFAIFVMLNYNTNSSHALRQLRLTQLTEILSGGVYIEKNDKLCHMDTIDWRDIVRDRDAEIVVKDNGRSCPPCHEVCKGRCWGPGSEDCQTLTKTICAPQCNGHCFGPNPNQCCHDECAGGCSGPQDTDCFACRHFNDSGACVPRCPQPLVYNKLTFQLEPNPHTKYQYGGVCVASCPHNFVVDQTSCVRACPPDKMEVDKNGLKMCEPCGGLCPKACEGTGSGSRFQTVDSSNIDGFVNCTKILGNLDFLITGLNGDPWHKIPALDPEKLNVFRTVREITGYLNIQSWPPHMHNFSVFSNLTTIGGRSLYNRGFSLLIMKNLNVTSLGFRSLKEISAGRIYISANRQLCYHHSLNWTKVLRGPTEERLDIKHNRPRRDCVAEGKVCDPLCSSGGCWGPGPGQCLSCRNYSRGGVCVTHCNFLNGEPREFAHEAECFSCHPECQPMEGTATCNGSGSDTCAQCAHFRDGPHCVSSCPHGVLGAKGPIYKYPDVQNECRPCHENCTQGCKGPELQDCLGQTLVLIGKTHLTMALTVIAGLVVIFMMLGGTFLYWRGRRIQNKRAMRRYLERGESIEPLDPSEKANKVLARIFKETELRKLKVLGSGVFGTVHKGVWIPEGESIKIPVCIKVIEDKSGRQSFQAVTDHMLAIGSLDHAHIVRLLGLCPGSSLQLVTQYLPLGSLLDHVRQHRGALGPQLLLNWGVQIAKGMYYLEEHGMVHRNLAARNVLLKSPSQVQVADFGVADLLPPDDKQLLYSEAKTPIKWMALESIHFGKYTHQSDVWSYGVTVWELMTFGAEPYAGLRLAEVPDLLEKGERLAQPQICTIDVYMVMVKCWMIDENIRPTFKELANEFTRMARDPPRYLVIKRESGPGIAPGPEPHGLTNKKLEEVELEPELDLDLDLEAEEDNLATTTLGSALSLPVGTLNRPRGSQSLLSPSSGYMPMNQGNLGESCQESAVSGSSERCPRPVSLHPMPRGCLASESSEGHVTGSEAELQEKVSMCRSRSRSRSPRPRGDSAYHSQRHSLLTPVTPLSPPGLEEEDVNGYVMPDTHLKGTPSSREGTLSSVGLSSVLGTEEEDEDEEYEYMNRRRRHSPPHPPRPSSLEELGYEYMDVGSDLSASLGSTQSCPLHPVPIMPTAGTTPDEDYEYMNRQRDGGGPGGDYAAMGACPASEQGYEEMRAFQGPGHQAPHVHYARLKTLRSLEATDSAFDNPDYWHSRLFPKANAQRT

B1: D01 (antibody, V domains shown)
VH: EVQLVQSGAEVRKPGASVKVSCKASQYTFTNYHIHWVRQVPGQGLEWMAMINPSNGNTNYGQRFQDRVTLTRDTSTSTAYMELSSLRSEDTAVYLCARDGLTFGDLLAYWGQGTLVTVSS
VL: QSVLTQPPSASGTPGQSVTISCSGSSSNIGGNTVNWYQQFPGTAPKLLMYINNLRPAGVPDRFSGSKSGTSASLVISGLQSEDEADYYCASWDDSLSGLVFGGGTKLTVL
With B1, in test [1], the 50% effective concentration (EC50) – broadly, the concentration needed to bring the measured effect to its halfway point – was 4030 pM.

B2: B08 (antibody, V domains shown)
VH: QVQLVQSGAEVKKPGASVKVSCKASGYTFTSHYGISWVRQAPGQGLEWMGSITPHNGKTNYVQMFQGRVTMTTDTSTRTVYMELRNLRSDDTAVYYCARDWNFADFDYWGQGTLVTVSS
VL: QSVLTQPPSASGSPGQSVTISCTGTSSDVGGYNFVSWYQQHPGKAPKLMIYDVTNRPSGVSNRFSGSKSGNTASLTISGLQAEDEADYYCSSYTSSSTPYVFGTGTKLTVL
In test [1], B2 gave an EC50 of 92.1 pM.

B3: D07 (antibody, V domains shown)
VH: QVQLVESGGGLVQPGGSLRLSCVASGFTFSSYWMSWVRQAPGKGLEWVAYINLDGSEKDYVDSVKGRFTISRDNAKNSLYLQMNSLRAEDTALYYCAKAYSSSWLLSGGMDVWGQGTTVTVSS
VL: SYELTQPASVSGSPGQSITISCTGTSSDVGNYNSVSWYQQHPGKAPELMIYDVNNRPSGVSNRFSGSKSGNTASLTISGLQAEDEADYYCSSYTSSSTLVFGGGTQLTVLG
For B3, in test [1], the EC50 was found to be 933 pM.

B4: E08 (antibody, V domains shown)
VH: EVQLVESGGGLIQPGGSLRLSCAASGFTVSSNYMSWVRQAPGKGLEWVSVIYSGGSTYYADSVKGRFTISRDNSKNTLYLQMNSLRAEDTAVYYCARDFGVGAVDYWGQGTLVTVSS
VL: QSVLTQPASVSGSPGQSITISCTGTSSDVGGYNFVSWYQQHPGKAPKLMIYDVTNRPSGVSNRFSGSKSGNTASLTISGLQAEDEADYYCSSYTDSSTLDVVFGGGTKVTVL
In test [1], B4 yielded an EC50 of 3070 pM.

B5: D10 (antibody, V domains shown)
VH: QVQLVESGGGLVQPGGSLRLACAASGFTFSNYEMNWVRQAPGKGLEWVATISDDSVYKYYADSVKGRFTISRDNSKALFYLQMDSLTFEDTAIYYCARDPGGDSLGYFQHWGQGTLVTVSS
VL: QAGLTQPPSASASPGDSVTLTCTLSSDHSDYKVDWYQQRPGKGPRFVMRVGTGGIVGVKGDGIPDRFSVWGSGPNRYLTIKNIQEEDESDYHCGSDHGSGNNYVYVFGGGTKLTVL
The molecule B5 returned an EC50 in test [1] of 2010 pM.

B6: B01 (antibody, V domains shown)
VH: QVQLVESGGGLVQPGGSLRLACAASGFTFSNYEMNWVRQAPGKGLEWVATISDDSVYKYYADSVKGRFTISRDNSKALFYLQMDSLTFEDTAIYYCARDPGGDSLGYFQHWGQGTLVTVSS
VL: QAGLTQPPSASASPGDSVTLTCTLSSDHSDYKVDWYQQRPGKGPRFVMRVGTGGIVGVKVSNRFSGSKSGNTASLTISGLQAEDEADYYCSSYTDSSTLDVVFGGGTKLTVL
Consider B6, for which the midpoint of the response in test [1], the EC50, lay at 2650 pM.

B7: D03 (antibody, V domains shown)
VH: QVQLVESGGGLVKPGGSLRLSCAASGFTFSSYSMNWVRQAPGKGLEWVSSISSSSSYIYYADSVKGRFTISRDNSKNTLYLQMNSLRDEDTAVYYCAREILTGYYPDAFDMWGQGTMVTVSS
VL: SYELMQPPSVSVAPGKTARITCGGNNIGSKSVHWYQQKPGQAPVVVIYYDSDRPSGIPERFSGSNSGNTATLTISRVEAGDEADYYCQVWDSSSDHYVFGTGTKLTVL
In the case of B7, the EC50 in test [1] is 5970 pM.

B8: C03 (antibody, V domains shown)
VH: QVQLVQSGAEVKKPGASVKVSCKASGYTFTSYGISWVRQAPGQGLEWMGWISAYNGNTNYAQKLQGRVTMTTDTSTSTAYMELRSLRSDDTAVYYCAREAYAWGAFDIWGQGTMVTVSS
VL: SYELMQPPSVSVAPGKTARITCGGNNIGSKSVHWYQQKPGQAPVLVIYYDSDRPSGIPERFSGSNSGNTATLTISRVEAGDEADYYCQVWDSSRDHAVFGGGTKLTVL
B8 showed an EC50 in test [1] of 427 pM.

B9: D04 (antibody, V domains shown)
VH: EVQLLESGGGLVKPGGSLRLSCAASGFTFSSYSMNWVRQAPGKGLEWVSSISSSSSYIYYADSVKGRFTISRDNAKNSLYLQMNSLRAEDTAVYYCARGFGEDLFDYWGQGTLVTVSS
VL: QSVLTQPPSVSVAPGKTARITCGGNNIGSKSVHWYQQKPGQAPLLVIYYDTDRPSGIPERFSGSNSENTATLTISGVEAGDEADYYCQVWDIGSDQVVFGTGTKVTVL
B9: it took 24.2 pM to reach a half-maximal effect in test [1] (EC50).

B10: A01 (antibody, V domains shown)
VH: QVQLVQSGAEVKQPGASVKVSCKASGGTFSSYAISWVRQAPGQGLEWMGGIIPIFGTANYAQKFQGRVTITADESTSTAYMELSSLRSEDTAVYYCATTTMVRGVIMYYFDYWGQGTLVTVSS
VL: QSALTQPPSASGSPGQSVTISCTGTSSDVGAYNDVSWYQHHPGKAPKLIIYEVNHRPSGVPDRFSGSKSDNTASLTISGLQAEDEADYYCSSYTPSNTPLVFGSGTKVTVL
notes: fully human antibody of an IgG class, detected with anti-human IgG (gamma-chain specific); also called ErbB3-A01; anti-ErbB3 A01
Turning to B10, in test [2], the “IC50, inhibition of ERK1/2 phosphorylation induced by NRG1 beta-1 (phospho-p44/42 MAPK ELISA, MCF7)” value is 460 pM; the “IC50, inhibition of ErbB3 phosphorylation induced by Heregulin (phospho-HER3 ELISA, MCF7)” value (from here on “IC50, inhibition … (phospho-HER3 ELISA, MCF7)”) worked out at 460 pM; the “IC50, inhibition of NRG1-beta 1 induced MCF7 proliferation (MTT)” value (from here on “IC50, inhibition … (MTT)”) amounted to 10600 pM. The molecule also returned a concentration giving a half-maximal response (EC50) in test [1] of 5710 pM.

B11: D08 (antibody, V domains shown)
VH: QVQLVESGGGLVKPGGSLRLSCAASGFTSSSYVLNWVRQAPGKGLEWVSSISSRGSYIYYADSVKGRFTISRDNAKNSLYLQMNSLRAEDTAVYYCARERAGFSPVNAFDIWGQGTMVTVSS
VL: QSVLTQPASVSGSPGQSITISCTGSSSDVGSYNLVSWYQQHPGKAPKLMIYDDNRRPSGISTRFSGSKSGNTASLTVSGLQAEDEAYYYCSSYAGRNNDVIFGGGTQLTVL
For the molecule B11, in test [1], a half-maximal response (EC50) required 1930 pM.

B12: A11 (antibody, V domains shown)
VH: QVQLVQSGRGLVQPGRSLRLSCAASGFTFDEYAMHWVRHAPGKGLEWVAGMSWNGGGIGYADSVKGRFTISRDNSKNTLYLQMNSLRAEDTAVYYCAREGAGGSYPTDAFDIWGQGTTVTVSS
VL: IVLTQSPSSLSASVGDRVTITCQASHDISNYLTWYQHRPGRAPKLLIFDASRLETGVPSRFSGYGSGKDFTFTISGLQPEDFATYYCQHYADLPSFGQGTKLEIK
notes: also called ErbB3-A11
Regarding B12, in test [1], a half-maximal effect (EC50) was put at 219 pM.

B13: B11 (antibody, V domains shown)
VH: QVQLVQSGRGLVQPGRSLRLSCAASGFTFDEYAMHWVRHAPGKGLEWVAGMSWNGGGIGYADSVKGRFTISRDNSKNTLYLQMNSLRAEDTAVYYCAREGAGGSYPTDAFDIWGQGTTVTVSS
VL: EIVLTQSPSSLSASVGDRVTITCQASHDISNYLTWYQHRPGRAPKLLIFDASRLETGVPSRFSGYGSGKDFTFTISGLQPEDFATYYCQHYADLPSFGQGTKVDIK
With B13, the EC50 in test [1] turned out to be 49 pM.

B14: A08 (antibody, V domains shown)
VH: QMQLVQSGADVKKPGASVRVSCKTSGYTFTSYDINWVRQAPGQGLEWMGWMNPDTGNTAYVQKFQGRVTVTRDTSINTVYMELSGLRSEDTAVYYCAKSGGSSSYDAFDIWGQGTMVTVSS
VL: QSVLTQPPSVSVAPGNTATITCGGDNIGEKTVHWYQQRPGQAPALVIYYDSDRPSGIPERFSGSNSGNTATLTISRVEAGDEADYYCQVWDSSSDHVVFGGGTKLTVL
notes: also called ErbB3-A08
As for B14, in test [2], the “IC50, inhibition … (MTT)” value worked out at 12800 pM. Besides, the EC50 in test [1] was 747 pM.

B15: A04 (antibody, V domains shown)
VH: QVQLQQSGPGLVQPSQTLSLTCDISGDSVSSTGAAWNWIRQSPSRGLEWLGRTYYRSKWYNDYALSVRSRITITPDTSKNQFSLQLNSVTPEDTAVYYCVRDGDVGLDAFDIWGQGTMVTVSS
VL: QTVVTQAPSVSVAPGQTARITCGGNNIGSKSVHWYQQKPGQAPVLVVYDDSDRPSGIPERFSGSNSGNTATLTISRVEAGDEADYYCQVWDSTSDHVVFGGGTKVTVL
notes: also called ErbB3-A04; anti-ErbB3 A04
In the case of B15, in test [2], the “IC50, inhibition of ERK1/2 phosphorylation induced by NRG1 beta-1 (phospho-p44/42 MAPK ELISA, MCF7)” value is 130 pM and the “IC50, inhibition … (phospho-HER3 ELISA, MCF7)” value amounted to 130 pM. In test [1], this molecule displayed an EC50 of 163 pM.

B16: A02 (antibody, V domains shown)
VH: EVQLVQSGAEVKKPGASVTVSCKPSGYAFTDYYIHWVRQAAGQGLEWMGWVDPRSGATVYAQNFQGRVTMTRDRSSSTVYMDLSRVTSDDTALYFCGRDNYGIFDYWGQGTLVTVSS
VL: QPVLTQPPSVSAAPGQRVTISCSGSSSNIGNNYLSWYQQLPGTAPKLLIYDDTKRPSGIPDRFSGSKSGTSATLGITGLQTGDEADYYCGTWDGSLDAEVFGTGTKLTVL
notes: also called ErbB3-A02; anti-ErbB3 A02
Regarding B16, in test [2], the “IC50, inhibition of ERK1/2 phosphorylation induced by NRG1 beta-1 (phospho-p44/42 MAPK ELISA, MCF7)” value came to 120 pM; the “IC50, inhibition … (phospho-HER3 ELISA, MCF7)” value stood at 120 pM; the “IC50, inhibition … (MTT)” value is 2800 pM. The molecule also returned an EC50 in test [1] of 1220 pM.

(Values after patent publication US20160311923A1 (SORRENTO THERAPEUTICS, published 2016).)
